Biological target: PKM2 (pyruvate kinase M, isoform M2) (human (endogenous in HUVECs)) (UniProt P14618)
Test: native gel or EMSA

Chain of PKM2 (pyruvate kinase M, isoform M2), P14618 1-531 (enzyme; other documents disagree on this pair) (P14618 whole entry, canonical isoform): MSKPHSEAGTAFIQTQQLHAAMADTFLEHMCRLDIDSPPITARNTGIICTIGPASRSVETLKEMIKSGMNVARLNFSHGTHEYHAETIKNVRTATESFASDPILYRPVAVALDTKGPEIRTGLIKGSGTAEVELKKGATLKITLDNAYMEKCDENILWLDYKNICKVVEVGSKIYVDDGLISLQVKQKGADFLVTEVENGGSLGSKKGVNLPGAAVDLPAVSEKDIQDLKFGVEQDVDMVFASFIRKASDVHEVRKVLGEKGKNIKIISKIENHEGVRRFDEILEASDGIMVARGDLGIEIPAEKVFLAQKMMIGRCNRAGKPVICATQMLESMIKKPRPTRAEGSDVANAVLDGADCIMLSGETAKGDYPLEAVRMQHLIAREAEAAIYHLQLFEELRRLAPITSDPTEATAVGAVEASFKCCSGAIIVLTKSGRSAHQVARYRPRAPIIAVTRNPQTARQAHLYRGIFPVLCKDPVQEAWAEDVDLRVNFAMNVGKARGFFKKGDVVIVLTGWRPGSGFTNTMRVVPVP

stoichiometry N: 2
Substance: PKM2 (pyruvate kinase M, isoform M2), P14618 1-531 (enzyme; other documents disagree on this pair)
